The term EC50 (read off the curve) denotes the concentration at which the effect is half-maximal. The IC50 is the concentration that inhibits the measured activity by half. For orientation: EC50 means the concentration that produces a half-maximal response.

Data on 18 molecules can be found in patent US20230002494A1 (SANYOU BIOPHARMACEUTICALS, published 2023).

Experiment [1] deals with T1, human PD-L1 (full-length, on cells) (human, UniProt Q9NZQ7 19-290).
T1 construct: whole, on cells; Expressed on CHO-s cells; also called human PD-L1-CHO; PD-L1-CHO
Nature of the experiment: FACS on huPD-L1-CHOK cells.

Experiment [2] concerns the target T1, human PD-L1 (full-length, on cells). Nature of the experiment: FACS blocking on huPDL1-CHO cells; blocked ligand PD-1-Biotin 1 µg/mL; MFI = bound PD-1.
Experiment [3] shares this target. Briefly: FACS competition, human PD-L1-CHO cells, competitor biotin-labeled PD-1-Fc 1 µg/mL.
The target in experiment [4] is T2, rhesus monkey PD-L1 (full-length, on CHO-s cells) (rhesus monkey, UniProt F6VEW6 19-290).
T2 construct: whole, on cells; also called monkey PD-L1-CHO
Briefly: FACS, monkey PD-L1-CHO cells. The text has this:
(§1) In order to evaluate 4 derisked VHH-Fc candidate antibodies, an FACS method is used to detect the binding activities thereof to cell expressed human PD-L1 and monkey PD-L1 proteins.
In general terms: In flow cytometry, cells or beads pass a laser one at a time.

Experiment [5] deals with T1, human PD-L1 (full-length, on cells). Briefly: FACS on human PD-L1-CHO cells, PE anti-human IgG Fc. The text has this:
1) collecting the cultured human PD-L1-CHO cells, centrifuging the collected cells at 300 g to remove the supernatant, resuspending the cells in a formulated FACS buffer and counting the cells, and adjusting the density of the cell suspension to 2×10⁶ cells/mL;

Experiment [6] shares this target. Nature of the experiment: FACS, human PD-L1-CHO cells.
Text: as §1

Experiment [7] deals with T3, mouse PD-L1 (full-length, on CHO-s cells) (mouse, UniProt Q9EP73 19-290).
T3 construct: whole, on cells; also called mouse PD-L1-CHO
Briefly: FACS on mouse PD-L1-CHOK cells.

Experiment [8] concerns the target T1, human PD-L1 (full-length, on cells). Nature of the experiment: FACS on PD-L1-CHO cells, anti-Llama IgG FITC.
Experiment [9] has the same target. Briefly: FACS blocking on PD-L1-CHO cells, lysate samples; the blocked ligand is not named on the sheet or in Example 17.
The target is the same in experiment [10]. Briefly: FACS, human PD-L1-CHO cells. The source holds these as a separate data set.
Experiment [11] has the same target. Nature of the experiment: FACS competition, human PD-L1-CHO cells, competitor biotin-labeled CD80 1 µg/mL.
In experiment [12] the target is T2, rhesus monkey PD-L1 (full-length, on …). Briefly: FACS, monkey PD-L1-CHO cells. The text has this: In order to evaluate the cross-reactivity of the VHH-Fc candidate antibodies to monkey PD-L1 and mouse PD-L1, an FACS method is used to detect the binding activity thereof to the mouse and rhesus monkey PD-L1 protein on cells.
This is another data set of the same source.

Experiment [13] deals with T1, human PD-L1 (full-length, on cells). Nature of the experiment: FACS competition, human PD-L1-CHO cells, competitor biotin-labeled PD-1-Fc 1 µg/mL. The source holds these as a separate data set.

Where two headings read alike, the source gives them in different places.

T3 sequence (Q9EP73 19-290): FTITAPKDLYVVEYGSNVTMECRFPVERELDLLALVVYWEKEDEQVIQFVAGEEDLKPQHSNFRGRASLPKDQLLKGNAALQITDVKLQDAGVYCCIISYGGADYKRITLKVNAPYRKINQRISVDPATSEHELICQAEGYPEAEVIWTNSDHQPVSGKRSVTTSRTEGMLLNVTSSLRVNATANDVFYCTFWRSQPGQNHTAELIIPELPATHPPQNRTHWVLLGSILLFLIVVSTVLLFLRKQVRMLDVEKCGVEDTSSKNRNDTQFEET
T1 sequence (Q9NZQ7 19-290): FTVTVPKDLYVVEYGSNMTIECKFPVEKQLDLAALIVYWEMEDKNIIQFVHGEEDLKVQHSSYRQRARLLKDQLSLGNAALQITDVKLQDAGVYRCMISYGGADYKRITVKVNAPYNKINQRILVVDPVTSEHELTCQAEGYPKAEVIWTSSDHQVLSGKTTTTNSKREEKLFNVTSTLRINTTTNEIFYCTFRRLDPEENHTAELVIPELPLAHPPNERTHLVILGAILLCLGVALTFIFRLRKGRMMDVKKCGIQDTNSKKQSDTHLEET

B1: NB22D-21-94 (Fc fusion)
chain: EVQLVESGGGLVQPGGSLRLSCAASRTAGNIHGMHWYRQAPGKGREWVGSIFITGNTIVTDSVKGRFTISRDNAKNTLYLQMNTLRAEDTAVYYCAADVRGYGRAWGQGTTVTVSS
notes: not shown: 'full-length antibodies' were constructed
As for B1, the “EC50 (read off the curve)” value in experiment [1] is around 0.2 mg/L. Besides, in [2], the “IC50 (read off the curve)” value was around 0.2 mg/L.

B2: NB22D-21-huVH2 (Fc fusion, not shown: a dimerising Fc or GST)
chain: EVQLVESGGGLVQPGGSLRLSCAASRTDSNINGMHWYRQAPGKGREWVGTIFIDGNTIVTDSVKGRFTISRDNAKNTLYLQMNTLRAEDTAVYYCAADVSGYGRAWGQGTTVTVSS
notes: Humanized form of NB22D-21; also called humanized antibody NB22D-21-huVH2; D21-Vh2
B2 showed an IC50 in experiment [3] of 1 mg/L. For the same molecule, the EC50 in experiment [4] was determined as 1.82 mg/L; in [6] it was 0.72 mg/L. Besides, the “EC50 (read off the curve)” value in experiment [5] is around 0.1 mg/L.

B3: NB22D-21-154 (Fc fusion)
chain: EVQLVESGGGLVQPGGSLRLSCAASRTASNAMGMHWYRQAPGKGREWVGMIFRDGNTIVTDSVKGRFTISRDNAKNTLYLQMNTLRAEDTAVYYCAADVRGYGRAWGQGTTVTVSS
notes: as for B1
Regarding B3, in [7], the binding result is recorded as “binds”. Besides, the concentration giving a half-maximal response (EC50 (read off the curve)) in [1] was around 0.2 mg/L. In addition, the “IC50 (read off the curve)” value in [2] is around 0.2 mg/L.

B4: NB22D-21-17 VHH-Fc chimeric antibody protein (Fc fusion)
chain: EVQLVESGGGLVQPGGSLRLSCAASRTGSNIYGMHWYRQAPGKGREWVGTIFIDWNTIVTDSVKGRFTISRDNAKNTLYLQMNTLRAEDTAVYYCAADVSGYGRAWGQGTTVTVSS
notes: not shown: human IgG1 Fc fragment, its N-terminus linked to the C-terminus of the VHH
For B4, the figures for the half-maximal effective concentration (EC50) in experiment [4] and in experiment [6] were 3.25 mg/L and 1.73 mg/L, respectively.

B5: SY01-201 (VHH lysate) (VHH)
VHH: EVQLVESGGGLVQPGGSLRLSCAHSRTDSNIHGMHWYRQAPGKGREWVGTIFIDLNTIVTDSVKGRFTISRDNAKNTLYLQMNTLRAEDTAVYYCAADVSGYGRAWGQGTTVTVSS
notes: Tested as VHH lysate of a monoclone from the phage display vector
Regarding B5, in experiment [8], the binding result is given as “binds”.

B6: SY01-D21-8 (VHH lysate) (VHH)
VHH: EVQLVESGGGLVQPGGSLRLSCAASRTYSNIYGMHWYRQAPGKGREWVGTIFIGSNTIVTDSVKGRFTISRDNAKNTLYLQMNTLRAEDTAVYYCAADVSGYGRAWGQGTTVTVSS
On to B6, for which the “IC50 (read off the curve)” value in experiment [9] was around 0.3 mg/L.

B7: NB22D-21-8 VHH-Fc chimeric antibody protein (Fc fusion)
chain: EVQLVESGGGLVQPGGSLRLSCAASRTYSNIYGMHWYRQAPGKGREWVGTIFIGSNTIVTDSVKGRFTISRDNAKNTLYLQMNTLRAEDTAVYYCAADVSGYGRAWGQGTTVTVSS
notes: as for B4
For B7, the concentration giving a half-maximal response (EC50) in experiment [4] worked out at 0.7 mg/L; in experiment [6], 0.26 mg/L.

B8: NB22D-21-45-106 (Fc fusion)
chain: EVQLVESGGGLVQPGGSLRLSCAASRRWSNIHGMHWYRQAPGKGREWVGSRFITGNTIVTDSVKGRFTISRDNAKNTLYLQMNTLRAEDTAVYYCAADVRGYGRAWGQGTTVTVSS
notes: as for B1
In the case of B8, the binding result in [7] is given as “binds”. Also, the “EC50 (read off the curve)” value in [1] was around 0.2 mg/L. In addition, the “IC50 (read off the curve)” value in experiment [2] was around 0.2 mg/L.

B9: NB22D-21-4 VHH-Fc chimeric antibody protein (Fc fusion)
chain: EVQLVESGGGLVQPGGSLRLSCAASRTDRNINTMHWYRQAPGKGREWVGTIFIDLNTIVTDSVKGRFTISRDNAKNTLYLQMNTLRAEDTAVYYCAADVSGYGRAWGQGTTVTVSS
notes: as for B4
Consider B9, for which the binding result in [7] is given as “no binding (tested: 20 µg/mL)”. For the same molecule, the IC50 in [3] turned out to be 0.3 mg/L. Moreover, the “EC50 (read off the curve)” value in [1] was around 0.2 mg/L. Moreover, the half-maximal effective concentration (EC50) came to 0.3 mg/L in experiment [4] and 0.21 mg/L in experiment [6]. In experiment [2], the “IC50 (read off the curve)” value is around 0.2 mg/L.

B10: NB22D-21-123 (Fc fusion)
chain: EVQLVESGGGLVQPGGSLRLSCAASPTASNIHGMHWYRQAPGKGREWVGMIFITGLTIVTDSVKGRFTISRDNAKNTLYLQMNTLRAEDTAVYYCAADVSGYGRAWGQGTTVTVSS
notes: as for B1
On to B10, for which, in [7], the binding result was “binds”. In experiment [1], the “EC50 (read off the curve)” value is around 0.2 mg/L. Besides, in experiment [2], the “IC50 (read off the curve)” value was around 0.2 mg/L.

B11: NB22D-21-109 (Fc fusion)
chain: EVQLVESGGGLVQPGGSLRLSCAASRTAGYIHGMHWYRQAPGKGREWVGMIFGWGNTIVTDSVKGRFTISRDNAKNTLYLQMNTLRAEDTAVYYCAADVRGYGRAWGQGTTVTVSS
notes: as for B1
As to B11, the “EC50 (read off the curve)” value was around 1 mg/L in experiment [7] and around 0.2 mg/L in [1]. Further, the “IC50 (read off the curve)” value in experiment [2] was around 0.2 mg/L.

B12: 47 (VHH)
VHH: EVQLVESGGGLVQPGGSLRLSCAASRTLSNIRGMHWYRQAPGKGREWVGTIFIDLNTIVTDSVKGRFTISRDNAKNTLYLQMNTLRAEDTAVYYCAADVSGYGRAWGQGTTVTVSS
notes: also called SY01-D21-47
Turning to B12, the “IC50 (read off the curve)” value in [9] is around 0.3 mg/L.

B13: SY01-D21-24 (VHH lysate) (VHH)
VHH: EVQLVESGGGLVQPGGSLRLSCAASRTFSNIFGMHWYRQAPGKGREWVGTIFITGNTIVTDSVKGRFTISRDNAKNTLYLQMNTLRAEDTAVYYCAADVSGYGRAWGQGTTVTVSS
In the case of B13, the “IC50 (read off the curve)” value in experiment [9] was around 0.5 mg/L.

B14: NB22D-21-24 VHH-Fc chimeric antibody protein (Fc fusion)
chain: EVQLVESGGGLVQPGGSLRLSCAASRTFSNIFGMHWYRQAPGKGREWVGTIFITGNTIVTDSVKGRFTISRDNAKNTLYLQMNTLRAEDTAVYYCAADVSGYGRAWGQGTTVTVSS
notes: as for B4
As to B14, the IC50 in experiment [3] came out at 0.2 mg/L. Moreover, the results for the EC50 in experiment [4] and in [6] were 0.39 mg/L and 0.14 mg/L, respectively.

B15: SY01-208 (VHH lysate) (VHH)
VHH: EVQLVESGGGLVQPGGSLRLSCAHSRTDSNIFGMHWYRQAPGKGREWVGTIFIDANTIVTDSVKGRFTISRDNAKNTLYLQMNTLRAEDTAVYYCAADVSGYGRAWGQGTTVTVSS
notes: as for B5
Consider B15, for which the binding result in experiment [8] was “binds”.

B16: SY01-NB-027-M (VHH lysate) (VHH)
VHH: EVQLVESGGGLVQPGGSLRLSCAHSRTDSNINSMHWYRQAPGKGREWVGTWFIDGNTIVTDSVKGRFTISRDNAKNTLYLQMNTLRAEDTAVYYCAADEWMYGRAWGQGTTVTVSS
notes: as for B5
In the case of B16, in [8], the binding result was “binds”.

B17: NB22D-21-huVH1 (Fc fusion, not shown: a dimerising Fc or GST)
chain: EVQLVESGGGLVQPGGSLRLSCAHSRTDSNINGMHWYRQAPGKGREWVGTIFIDGNTIVTDSVKGRFTISRDNAKNTLYLQMNTLRAEDTAVYYCAADVSGYGRAWGQGTTVTVSS
notes: Humanized form of NB22D-21; also called humanized antibody NB22D-21-huVH1
Regarding B17, the “EC50 (read off the curve)” value in experiment [5] is around 0.1 mg/L.

B18: control antibody KN035 (antibody, V domains shown)
VH: QVQLVESGGGLVQPGGSLRLSCAASGFTFSRRCKAWFRQAPGKERERVAKILTTSGSTYLADSVKGRFTISRDNSKNTVYLQMNSLRAEDTAVYYCAADSFEDPTCTLVTSSGAFQYWGQGTLVTVSS
notes: also called KN035 (control); positive control KN035
As for B18, the EC50 was 0.39 mg/L in experiment [10] and 0.21 mg/L in [12]. The IC50 is 0.631 mg/L in [11] and 0.39 mg/L in experiment [13]. Moreover, the figures for the “EC50 (read off the curve)” value in experiment [1] and in experiment [5] were around 0.2 mg/L and around 0.1 mg/L, respectively. Besides, the “IC50 (read off the curve)” value in [2] is around 0.2 mg/L.
